Article PMC8633581

Legend:
[1] = biological target: Gαq/i (chimera between Gαq and Gαi), as used in fluorescence polarisation; assay: fluorescence polarisation; direct binding of HTH peptide and Gαq/i; conditions not given
[2] = biological target: 171L-graft, displayed on yeast (phage T4) (UniProt P00720); assay: flow cytometry on cells; yeast surface titration: yeast displaying the construct, biotinylated Gαq/i 1 nM to 7.5 μM with AlF4-, 1 h on ice, streptavidin-phycoerythrin; 10 mM HEPES pH 8.0, 150 mM NaCl, 10 mM MgCl2, 30 μM AlCl3, 10 mM NaF, 0.1% BSA; one-step isotherm, apparent KD
[3] = biological target: HTH peptide of PLC-β3 with the mutations I860A and V866W, expressed on the surface of yeast; assay: as above
[4] = biological target: 1EBB-graft, displayed on yeast (Geobacillus stearothermophilus); assay: as above

Row | Kd [1] | fold increase of affinity against the original HTH peptide [1] | Substance | Kd [2] | Kd [3] | Kd [4]
1 | 400 nM |  | TAMRA-labeled HTH peptide (I860A) derived from PLC-β3 |  |  | 
2 | 290 nM | > 14 fold | soluble HTH peptide of PLC-β3 with the V866W mutation |  |  | 
3 |  |  | biotinylated Gαq/i (chimera between Gαq and Gαi, with C-terminal avitag) | 1700 nM | 400 nM | 2000 nM
